Target: Mouse FGFR4/β-klotho complex co-expressed in L6 cells (mouse) (UniProt Q03142)
Experiment: cell-based or functional assay

Sequence of Mouse FGFR4/β-klotho complex co-expressed in L6 cells (mouse) (Q03142 17-799, chain 1 of 2): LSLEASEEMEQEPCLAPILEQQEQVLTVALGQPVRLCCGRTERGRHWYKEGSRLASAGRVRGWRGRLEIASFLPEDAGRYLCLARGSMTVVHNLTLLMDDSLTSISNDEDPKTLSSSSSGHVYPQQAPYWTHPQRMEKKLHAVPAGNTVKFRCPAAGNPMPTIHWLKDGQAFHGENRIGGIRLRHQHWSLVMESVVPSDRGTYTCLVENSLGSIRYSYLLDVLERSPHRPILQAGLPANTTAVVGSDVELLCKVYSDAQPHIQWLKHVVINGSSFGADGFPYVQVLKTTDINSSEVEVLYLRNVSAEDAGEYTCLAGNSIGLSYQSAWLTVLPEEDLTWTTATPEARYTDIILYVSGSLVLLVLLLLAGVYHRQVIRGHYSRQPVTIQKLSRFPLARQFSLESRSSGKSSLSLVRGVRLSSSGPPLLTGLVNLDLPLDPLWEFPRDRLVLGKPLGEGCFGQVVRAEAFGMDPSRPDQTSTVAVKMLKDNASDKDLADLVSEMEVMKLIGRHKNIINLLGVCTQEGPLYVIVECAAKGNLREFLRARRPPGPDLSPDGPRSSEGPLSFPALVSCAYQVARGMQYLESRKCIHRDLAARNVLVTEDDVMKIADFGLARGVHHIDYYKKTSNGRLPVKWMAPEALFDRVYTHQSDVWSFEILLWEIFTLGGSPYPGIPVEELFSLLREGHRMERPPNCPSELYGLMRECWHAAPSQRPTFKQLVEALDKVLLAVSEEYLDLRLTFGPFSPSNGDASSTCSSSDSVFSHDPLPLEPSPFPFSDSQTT
Sequence of Mouse FGFR4/β-klotho complex co-expressed in L6 cells (mouse) (Q99N32 whole entry, chain 2 of 2, further chain): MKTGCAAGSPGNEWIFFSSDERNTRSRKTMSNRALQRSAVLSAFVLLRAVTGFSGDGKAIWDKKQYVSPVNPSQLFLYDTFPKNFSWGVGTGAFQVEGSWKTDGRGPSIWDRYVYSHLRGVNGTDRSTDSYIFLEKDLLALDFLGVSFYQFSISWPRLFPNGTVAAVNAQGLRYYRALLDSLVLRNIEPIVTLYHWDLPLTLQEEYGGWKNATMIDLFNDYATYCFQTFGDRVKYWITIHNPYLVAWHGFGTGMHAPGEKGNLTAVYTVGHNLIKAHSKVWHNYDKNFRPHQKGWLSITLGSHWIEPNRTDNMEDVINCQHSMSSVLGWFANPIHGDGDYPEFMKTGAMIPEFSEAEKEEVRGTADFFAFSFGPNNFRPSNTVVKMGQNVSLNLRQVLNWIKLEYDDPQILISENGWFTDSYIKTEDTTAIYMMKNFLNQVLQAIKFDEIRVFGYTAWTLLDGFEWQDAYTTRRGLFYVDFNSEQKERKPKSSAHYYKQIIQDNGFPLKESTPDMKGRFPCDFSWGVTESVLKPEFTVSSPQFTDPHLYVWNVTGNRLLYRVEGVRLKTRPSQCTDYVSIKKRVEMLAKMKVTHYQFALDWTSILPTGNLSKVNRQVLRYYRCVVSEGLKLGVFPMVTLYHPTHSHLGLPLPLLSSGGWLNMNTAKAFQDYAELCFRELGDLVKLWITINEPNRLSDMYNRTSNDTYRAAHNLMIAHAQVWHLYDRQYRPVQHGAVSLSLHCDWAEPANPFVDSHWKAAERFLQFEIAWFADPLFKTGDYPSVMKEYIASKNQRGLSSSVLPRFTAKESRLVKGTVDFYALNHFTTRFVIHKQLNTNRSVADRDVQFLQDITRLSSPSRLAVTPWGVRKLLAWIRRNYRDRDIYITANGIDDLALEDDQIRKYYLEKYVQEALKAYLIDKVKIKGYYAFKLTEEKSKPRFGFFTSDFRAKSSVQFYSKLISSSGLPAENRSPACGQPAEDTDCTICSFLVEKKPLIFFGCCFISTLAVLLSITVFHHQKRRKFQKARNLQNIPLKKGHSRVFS

- EC50 (pM), ELK1 luciferase reporter in L6 cells: 52.5 pM
- Emax (fold potentiation), ELK1 luciferase reporter in L6 cells (fold potentiation): 1.82
Substance: FGF19 (wild type human fibroblast growth factor 19) (from UniProt O95750 23-216) (ligand)
